# Source: patent US20240083986A1 (published 2024)
# B1: H4H17045P2 (antibody, human IgG4, V domains shown)
# VH: EVQLVESGGGLVQPGVSLRLSCVASGFTFSNYDITWIRQIPGKGLEWVSRISGSGGSTYFADSVKGRFIISRDNSKNTVYMQMNSLRAEDSAVYYCARRDSVLFSMNSWLDPWGQGTLVTVSS
# VL: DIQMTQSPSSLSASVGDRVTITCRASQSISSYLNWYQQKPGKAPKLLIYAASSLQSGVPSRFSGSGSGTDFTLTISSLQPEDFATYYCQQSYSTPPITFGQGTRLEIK
# notes: Fully human antibody with human IgG4 Fc (H4H prefix)
# B2: H4H17033P (antibody, human IgG4, V domains shown)
# VH: QVQLVQSGAEVKKPGASVKVSCKASGYTFAAHYMHWVRQAPGQGLEWMGWINTYTGGTNYGQKFQGRVTMTRDTSITTAYMELSRLRSDDTAVYYCARDRRNWNFVFEYWGQGTLVTVSS
# VL: DIQMTQSPSSLSASVGDRVTISCRASQNIKNYLNWYQQKPGKAPKLLIYEASNLQSGAPSRFSGSGSGTDFTLTISSLEPEDFATYYCQQSFSIPWTFGQGTKVEIK
# notes: as for B1
# B3: H4H17028P (antibody, human IgG4, V domains shown)
# VH: QVQLVESGGGVVQPGRSLRLSCAASGFTFSRYAIHWVRQAPGKGLEWVAVISYDGDDKYYGDSVKGRFTISRDNSKTMVYLHMNSLRTEDTAVYYCAKDGYSLYGKDYFDYWGQGTLVTVSS
# VL: EIVLTQSPGTLPLSPGERATLSCRASQSITNSYLAWYQQKPDQAPRLLIYGASSRATGIPDRFSGSESGTDFTLTISRLEPEDFAVYYCQQYVRSPWTFGQGTKVEIK
# notes: as for B1
# B4: H4H17067P2 (antibody, human IgG4, V domains shown)
# VH: EVQLVQSGAEVKKPGESLKISCSGSGYRFTNYWIAWVRQMPGKGLEWMGLIHPDDSDIRYSPSFQGQVTFSVDKSINTAYLQWSSLKASDTAMYYCTRQDGILWSHNAWFDPWGQGTLVTVSS
# VL: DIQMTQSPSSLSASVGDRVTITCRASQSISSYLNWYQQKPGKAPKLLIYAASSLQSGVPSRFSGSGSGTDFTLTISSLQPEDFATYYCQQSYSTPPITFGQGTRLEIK
# notes: as for B1
# B5: H4H17031P (antibody, human IgG4, V domains shown)
# VH: QVQLQQWGAGLLKPSETLSLTCVVYGESFGNYHWNWIRQSPGKRLEWIGEINQNGHTNYNPSLKSRVTISVDTSKIQFSLRLNSVTAADTAVYFCARGHNYVNSYFGLDVWGQGTTVTVSS
# VL: EIVMTQSPATLSVSPGERATLSCRTSQSVSISLAWYQRKPGQAPRLLIFGSSTRATGVPARFSGSGSGTEFTLTISSLQSEDFAVYYCQQYNNWPYTFGQGTKLEIK
# notes: as for B1
# B6: H4H17038P2 (antibody, human IgG4 S228P, kappa, V domains shown)
# VH: EVQLVESGGDLVQPGGSLRLSCAASGFTFSSYEMNWVRQAPGKGLEWVSFISDSSSNIYYADSVKGRFTISRDNAKKSLYLQMTSLRAEDTAVYYCAREAIGSTSFDNWGQGTLVTVSS
# VL: EIVMTQSPATLSVSPGERATLSCRASQSVSSSLAWYQQKPGQAPRRLIYSASTRATGIPARFSGSGSGTEFTLTISSLQSEDFAIYYCHQYNNWPLTFGGGTKVEIKR
# notes: human IgG4 Fc; also called REGN5714; MAB3
# Target: T1, CHO produced recombinant Bet v 1 containing a S85A mutation with a C-terminal myc-myc hexahistidine tag … (Betula verrucosa (birch))
# T1 chain: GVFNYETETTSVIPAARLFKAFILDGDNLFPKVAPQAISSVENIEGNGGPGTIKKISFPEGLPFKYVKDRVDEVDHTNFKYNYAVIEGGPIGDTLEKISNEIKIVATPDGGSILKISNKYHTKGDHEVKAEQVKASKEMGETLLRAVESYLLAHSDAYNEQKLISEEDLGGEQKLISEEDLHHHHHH
# Assay: SPR, mAb captured via anti-hFc, 25 C
Binder,100 nM natural Bet v 1- MMH Bound (RU),Kd,koff,kon,t½
B1,60 RU,6.23 nM,0.000498 s⁻¹,80000 M⁻¹ s⁻¹,23 min
B2,67 RU,0.768 nM,0.000415 s⁻¹,540000 M⁻¹ s⁻¹,28 min
B3,71 RU,0.854 nM,0.000693 s⁻¹,811000 M⁻¹ s⁻¹,17 min
B4,55 RU,11.7 nM,0.00117 s⁻¹,100000 M⁻¹ s⁻¹,9.9 min
B5,63 RU,5.61 nM,0.00105 s⁻¹,187000 M⁻¹ s⁻¹,11 min
B6,63 RU,9.98 nM,–,–,1.8 min

# Target: T2, European Hornbeam (Car b 1 isoform 1A & 1B, MyBiosource, Cat #MBS1200018) (European Hornbeam, UniProt P38949 2-160)
# T2 construct: Bought reagent
# T2 sequence (looked up): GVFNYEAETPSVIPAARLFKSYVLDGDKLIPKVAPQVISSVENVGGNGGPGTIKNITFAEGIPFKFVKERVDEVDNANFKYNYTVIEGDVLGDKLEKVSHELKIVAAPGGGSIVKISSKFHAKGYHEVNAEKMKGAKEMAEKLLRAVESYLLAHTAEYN
# Assay: SPR, mAb captured via anti-hFc, 25 C
Binder,100 nM Analyte Bound (RU),binding result,Kd,koff,kon,t½
B1,5 RU,no binding (tested: 100 nM),–,–,–,–
B2,0 RU,no binding (tested: 100 nM),–,–,–,–
B3,159 RU,–,2.43 nM,0.000511 s⁻¹,210000 M⁻¹ s⁻¹,23 min
B4,0 RU,no binding (tested: 100 nM),–,–,–,–
B5,126 RU,–,13.8 nM,0.00111 s⁻¹,80400 M⁻¹ s⁻¹,10 min
B6,105 RU,–,41.4 nM,–,–,1.9 min

# Target: T1, CHO produced recombinant Bet v 1 …
# Assay: SPR, mAb captured via anti-hFc, 37 C
Binder,100 nM natural Bet v 1-MHH Bound (RU),Kd,koff,kon,t½
B1,84 RU,14.3 nM,0.00232 s⁻¹,162000 M⁻¹ s⁻¹,5 min
B2,79 RU,1.34 nM,0.00118 s⁻¹,883000 M⁻¹ s⁻¹,9.8 min
B3,77 RU,2.32 nM,0.00235 s⁻¹,1.01e+06 M⁻¹ s⁻¹,4.9 min
B4,76 RU,16.9 nM,0.00428 s⁻¹,253000 M⁻¹ s⁻¹,2.7 min
B5,71 RU,14.6 nM,0.00406 s⁻¹,278000 M⁻¹ s⁻¹,2.8 min
B6,56 RU,35.6 nM,–,–,0.39 min

# Target: T3, European Hornbeam (Car b 1 isoform 2, MyBiosource, Cat #MBS1043940) (European Hornbeam, UniProt P38950 2-160, limits assumed)
# T3 construct: Bought reagent
# T3 sequence (looked up): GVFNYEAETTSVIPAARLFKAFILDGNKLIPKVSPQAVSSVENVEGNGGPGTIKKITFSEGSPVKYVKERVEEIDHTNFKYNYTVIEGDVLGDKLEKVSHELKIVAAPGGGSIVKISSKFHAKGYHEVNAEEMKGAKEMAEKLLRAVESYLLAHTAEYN
# Assay: SPR, mAb captured via anti-hFc, 25 C
Binder,100 nM Analyte Bound (RU),binding result,Kd,koff,kon,t½
B1,5 RU,no binding (tested: 100 nM),–,–,–,–
B2,111 RU,–,33.4 nM,0.0447 s⁻¹,1.34e+06 M⁻¹ s⁻¹,0.3 min
B3,95 RU,–,45 nM,0.00437 s⁻¹,97100 M⁻¹ s⁻¹,2.6 min
B4,1 RU,no binding (tested: 100 nM),–,–,–,–
B5,160 RU,–,13.1 nM,0.00517 s⁻¹,395000 M⁻¹ s⁻¹,2.2 min
B6,–,–,50.5 nM,–,–,1.8 min

# Target: T4, Celery (Api g 1, MyBiosource, Cat #MBS1171376) (Celery, UniProt P49372 1-154, limits assumed)
# T4 construct: Bought reagent
# T4 sequence (looked up): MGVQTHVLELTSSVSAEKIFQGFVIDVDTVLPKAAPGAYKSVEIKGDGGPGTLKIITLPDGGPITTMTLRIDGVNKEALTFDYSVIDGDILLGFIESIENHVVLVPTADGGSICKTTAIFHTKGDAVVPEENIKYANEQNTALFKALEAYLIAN
# Assay: SPR, mAb captured via anti-hFc, 25 C
Binder,100 nM Analyte Bound (RU),binding result,Kd,koff,kon,t½
B1,0 RU,no binding (tested: 100 nM),–,–,–,–
B2,39 RU,–,167 nM,0.0791 s⁻¹,475000 M⁻¹ s⁻¹,0.2 min
B3,1 RU,no binding (tested: 100 nM),–,–,–,–
B4,0 RU,no binding (tested: 100 nM),–,–,–,–
B5,0 RU,no binding (tested: 100 nM),–,–,–,–
B6,-1 RU,–,–,–,–,–

# Target: T5, Apple (Mal d 1, MyBiosource, Cat #MBS1224919) (Apple, UniProt P43211 2-159, limits assumed)
# T5 construct: Bought reagent
# T5 sequence (looked up): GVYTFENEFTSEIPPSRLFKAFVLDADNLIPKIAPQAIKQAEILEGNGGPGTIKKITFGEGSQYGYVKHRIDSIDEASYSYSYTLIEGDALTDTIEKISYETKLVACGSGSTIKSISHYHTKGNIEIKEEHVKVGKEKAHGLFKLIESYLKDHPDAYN
# Assay: SPR, mAb captured via anti-hFc, 25 C
Binder,100 nM Analyte Bound (RU),binding result
B1,-1 RU,–
B2,1 RU,no binding (tested: 100 nM)
B3,1 RU,no binding (tested: 100 nM)
B4,-1 RU,–
B5,0 RU,no binding (tested: 100 nM)
B6,-1 RU,–

# Target: T6, Alder (Aln g 1, MyBiosource, Cat #MBS1041484) (Alder, UniProt P38948 2-160, limits assumed)
# T6 construct: Bought reagent
# T6 sequence (looked up): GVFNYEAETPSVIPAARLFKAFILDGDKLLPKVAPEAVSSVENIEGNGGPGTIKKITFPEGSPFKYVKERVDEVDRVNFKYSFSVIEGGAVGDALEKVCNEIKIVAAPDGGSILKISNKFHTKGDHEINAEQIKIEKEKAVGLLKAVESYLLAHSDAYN
# Assay: SPR, mAb captured via anti-hFc, 25 C
Binder,100 nM Analyte Bound (RU),binding result,Kd,koff,kon,t½
B1,0 RU,no binding (tested: 100 nM),–,–,–,–
B2,3 RU,no binding (tested: 100 nM),–,–,–,–
B3,16 RU,–,36.7 nM,0.0019 s⁻¹,51700 M⁻¹ s⁻¹,6.1 min
B4,2 RU,no binding (tested: 100 nM),–,–,–,–
B5,59 RU,–,45 nM,0.00238 s⁻¹,52900 M⁻¹ s⁻¹,4.8 min
B6,2 RU,no binding (tested: 100 nM),–,–,–,–
